A short description of this data set: yeast display, Sf9 membrane polyspecificity reagent, FACS + sequencing; frameworks hold sequencing errors. The gist of the method: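 Genes from sorted yeast were amplified by colony PCR, read by MiSeq 2 × 250 sequencing and filtered on CDR length. These cells carried a synthetic nanobody library in Saccharomyces cerevisiae BJ5465 and were sorted by FACS into low and high (top ~1%) gates on anti-HA and streptavidin fluorescence. Polyreactivity is labelled according to the gate of origin.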
Consider “QVQLVESGGGLVQAGGSLRLSCAASGSIFYTNVRGWYRQAPGKAREFVAAITGGGGSTYYADSVKGRFTISRDNAKNTVYLQMNSLKPEDTAVYYCATKAKPRSGYNYWGQGTQVTVSS”, for which the “polyreactivity (PSR sort gate)” value is “low polyreactivity”.

With “QVQLVESGGGLVQAGGSLRLSCAASGSIFERYAMGWYRQAPGKERELVAAISWRGGSTYYADSVKGRFTISRDNAKNTVYLQMNSLKPEDTAVYYCAAGARYVKQGYGYWGQGTQVTVSS”, the “polyreactivity (PSR sort gate)” value is “high polyreactivity”.

Consider “QVQIVESGGGLVQAGGSLRLSCAASGRIFAGYAIGWYRQAPGKERELVAAISSGGSTYYADSVKGRFTISRDNAKNTVYLQMNSLKPEDTAVYYCSAVGRRVYGTKFYYWGQGTQVTFSS”, for which the “polyreactivity (PSR sort gate)” value is “high polyreactivity”.

On to “QVQLVESGGGLVQAGGSLRLSCAASGIIFFRYAMGWYRQAPGKEREWVAGISGSGGSTYYADSVKGRFTMSRDNAKNTVYLQMNSLKPEDTAVYYCAKRYYRPVPGGYYWGQGTQVTVSS”, for which the “polyreactivity (PSR sort gate)” value is “high polyreactivity”.

For the sequence “QVQLVESGGGLVQAGGSLSLSCAASGSTFIKNAMGWYRQAPGKESELVAAINWSGTRTYYADSVKGRFTISRDNANNTVYLKMNSLKPEDTAVYYCAKVIARFVRYDYWGQGTQVTVSS”, the “polyreactivity (PSR sort gate)” value is reported as “high polyreactivity”.

“QVQLVESGGGLVQAGGSLRISCAASGSTFWNAMGWYRQAPGKERELVAAIRLSGGSTYYADSVKGRFTISRDNAKNTVYLQMNSLKPEDTAVYYCNSDVTFGYWEYDYWGQGTQVTVSS”: the “polyreactivity (PSR sort gate)” value is given as “low polyreactivity”.

Turning to “QVQLVESGGGLVQAGGSLRLSCAASGSILGTYAMGWYRQAPGKERELVARISRGGSTNYADSVKGRFTISRDNAKNTVYLQMNILKPEDTAVYYCAKRLYLPESWRYYYWGQGTQVTVSS”, the “polyreactivity (PSR sort gate)” value is “high polyreactivity”.

For the sequence “QVQLGESGGGLVQAGGSLRLTCAASGSIFSIYAMGWYIQAPGKERELVAAIDSGTSTTYADSVKGRFTISRDNAKYTVYLQMYSLKPEDTAVYYCAAALYSDVASVATYGYYWGQGTQVTVSS”, the “polyreactivity (PSR sort gate)” value was “low polyreactivity”.

As to “QVQHVESGGGLVQAGGSLRLICAASGLTSYYAMGSYRQAPGKEREIVAAIDGSDGNTYYADSVKGRYTISRDNAKNTVYLQMNSLKPEYTAVYYCNAETVLYWWSWENDYWGQGTQVTVSL”, the “polyreactivity (PSR sort gate)” value is given as “high polyreactivity”.

Take “QVQLVESGGGLVQAGGSLRLSCAASGNIFHFYAIARYRQAPRKERELVATISWRGDGTYYADSVKGRFTISRDKAKNTVYFQLISLKPEETAVDYCAARGVWPEYDYWGQGTQVTVSS”: the “polyreactivity (PSR sort gate)” value is listed as “low polyreactivity”.

Regarding “QVQLVDSGGGLVQAGGSLRLSCAASGRTFKPYTMGWYRQAPGKERDLVAAISARGVSTYYADSVKGRFTISRDNAKNTGYLQMNSLKPEDTAVYYCNRVYFIGYRVFPPPMDYWGQGTQVTVSS”, the “polyreactivity (PSR sort gate)” value is “high polyreactivity”.

Take “QVQLVESGGGLVQAGGSLRLSCAASGFIFPIYAMGWYRQEHGKERELVAGISGSGTSTYYADSVKGRFTISLDYAKNTVYLQMNSLKPVDNAVYYCNAKYPWGNYKSVSYDYWGQGTQVTVSS”: the “polyreactivity (PSR sort gate)” value is reported as “high polyreactivity”.

Consider “QDQLVESGGGLVQAGDSLRLSCAASGIILLSYAMGWYRQAPGKERELVAAITSGGGTNYADSVKGRFTISRDNAKNTVYLQMNSLKPEDTAVYYCAVGAYAGLYYYWGQGTQVTVSS”, for which the “polyreactivity (PSR sort gate)” value is listed as “low polyreactivity”.

On to “QVQLVESGGGLVQAGGSLRLSCAASGGIFVTYAMVWYRQAPGKERELVAAITSGGTTYYADSVKGRFTISRDNAKNTVYIQMNSLTPEDTAVYYCAARYYPGYYYPPLDYWGQGSQVTVSS”, for which the “polyreactivity (PSR sort gate)” value is listed as “low polyreactivity”.

With “QVQLVESGGCLVQAGGSLRLSCAASGRILLHNAMGWYRQAPGKERELVAAITNGGSTYYADSVKGRFTISRDNAKNTVYLQMNSLKPEDTAVYYCAARTRLAQYSRGRYRYDYWGQGTQVTVSS”, the “polyreactivity (PSR sort gate)” value is given as “high polyreactivity”.

For the sequence “QVHLVESGGGLVQAGGSLRLSCAASGFIFYSNSMGWYRPAPGKERELVAAISSGGGSTRYADSVKGRFTISRDNAKNTVYLQMNSLKPEDTAVYYCASRDGYTIFRSTRYYYWGEGTQVTVSS”, the “polyreactivity (PSR sort gate)” value is “high polyreactivity”.

On to “QVQLLESGGGLVQAGGSLRLSCADSGSIFPKNAIGWYRQAPGKERELVAGITSRTGRTYYADSVKGRFTISRDNSKNTVYLQMNRLKPEDTAVYYCAARIGGGPVKYDYWGQGTQVTVSS”, for which the “polyreactivity (PSR sort gate)” value is listed as “high polyreactivity”.

As to “QVQLVESGGGLVQAGGSLRLSCAASGSTFWYNDMGWYRQAPGKETELVASISWSGGDTYYADSVKGRFTISRDNAKNTVYLQMNSLKPEDTAVYYCAKGNNWISRLMDYWGQGTQVTVSS”, the “polyreactivity (PSR sort gate)” value was “low polyreactivity”.

“QVHLVESGGGLVQAGGSLRLSCDASGSTFGYYAMGWYRQAPGKERELVAAISWNGVSTYYADSVKGRFTISRDNAKNTVYLQMNCLKPEDTAVYYCATVGLRRLFVNPGTLMDYWGEGTQVTVSS”: the “polyreactivity (PSR sort gate)” value is listed as “low polyreactivity”.

In the case of “QVQLVESGGGLVQAGGSLRLSCAASGSTFVINAMGWYRQAPGKERELVADIDYRGGSTNYADSVKGRFTISRDNAKNTVYLPMNSLKPEDTAVYYCNKRYVIRRRGYDYWGQGTQVTVSS”, the “polyreactivity (PSR sort gate)” value was “low polyreactivity”.

Turning to “QVQLVESGGGLVQAGGSLRLSCAASGSIFVSYAMGWYRQAPGKERELVAAITGSGASTYYADSVKGRFTISRDNAKNTVYLQMNSLKPEDTAVYFCAAAPGKGPGYDYWGQGTQVTVSS”, the “polyreactivity (PSR sort gate)” value is reported as “low polyreactivity”.

Consider “QVQLVESGGGLVQAGGSLRLSCAASGSTFRFYTMGWYRQAPGKERELVAAISGSGGSTYYADSVKGRFTISRDNAKNTVYLQMNSLKPEDTAVYYCAADKSRYASHRGYWGQGTQVTVSS”, for which the “polyreactivity (PSR sort gate)” value is “low polyreactivity”.

Turning to “EEELVESGGGLVQAGGSLRLSCAASGSIFQYNAMGWYRQAPGKDRELVAVISWSGDTYYADSVKGRFTISRDNAKNTVYLQMNSLKPEDTAVYYCNAVQYTFTSEYGYWGQGTQVTVSS”, the “polyreactivity (PSR sort gate)” value is “low polyreactivity”.

Regarding “QVQLVESGGGLVQAGGSLRLSCAASGSIFDPYAMGWYIQAPGKERELDAAITASGSSTYYADSVKGRFTISRDNAKNTVYLQMNSLKPEDTAVYYCAADRANWEYLLSWLGYDYWGQGTQVTVSS”, the “polyreactivity (PSR sort gate)” value is “low polyreactivity”.

In the case of “QLQLVESGGGLVQAGGSLRLSCAASGIIFDFYAMGWYRQAPGKERELVAAITSSGGSTYYADSVKGRFTISRDNAKNTVYLQMNSLKPEDTAVYYCAADPWFYGYYDMDYWGQGTQVTVSS”, the “polyreactivity (PSR sort gate)” value was “low polyreactivity”.

In the case of “QVQLVESGGGLVQAGGSLRLSCAASGLIFGYYAMGWYRQAPGKEREFVAAISGTGGSTYYADSVKGRFTISRDNAKNTVYLQMNSLKPEDTAVYYCAARQGWWRFYAYDYWGQCTQVTVSS”, the “polyreactivity (PSR sort gate)” value is given as “high polyreactivity”.

Regarding “QVQLVESGGGLVQAGGSLRLSCAASGITFEYFDRGWYRQAPGKERELVAAISWSTDITYADSVKGRFTISRDNAKNTVYLQMNSLKPEDTAVYYCAASTYEYTSYDYWGQGTQVTVSS”, the “polyreactivity (PSR sort gate)” value is “low polyreactivity”.

For the sequence “QVQLVESGGGLVQAGGSLRLSCAACGSIFLSNSMGWYRQAPGKERELVADIDWTGGDTYYADSVKGRFTISRDNAMNTVYLQMNSLKPEDTAFYYCAADYGYRNLLTEYGYWVQGTQVTVSS”, the “polyreactivity (PSR sort gate)” value was “low polyreactivity”.

Turning to “QVQLVESGGGLVQAGGSLRLSCAASGSISYYYGMGWYRQAPGKERELVAAISTRGGSTYYADSVKGRFTISRDNAKNTVYLQMNSLKPEDTAVYYCAVRYYRPYSRFDYWGQGTQVTVSS”, the “polyreactivity (PSR sort gate)” value was “high polyreactivity”.

For the sequence “QVQLVESGGGLVQAGGSLRLSCAASGRTLHYYAMGWYRQAPGKERELVARINWSGGSTYYADSVKGRFTISRDNAKNTVYLQMNCLKPEDTAVYYCARTSYYWSSFDYWGQGTQVTVSS”, the “polyreactivity (PSR sort gate)” value is reported as “high polyreactivity”.
